Experimental data taken from patent publication US20040167074A1, “Therapeutic applications of mFLINT polypeptides” (priority 1998, published 2004).

Legend:
[1] = system: Mouse T cell hybridoma cells (LTT cells); assay: Murine FasL-mediated apoptosis of LTT cells (Annexin V assay); type: cell-based; details: test agent 1 μg/ml
Experimental: LTT,2,14,11 cells (LTT cells), see Glasebrook, Eur.J.Immunol. 17: 1561-65 (1987), were used in this Annexin V assay. On the first day, a 96 well plate was coated with anti-CD3 (2C11) at a serial dilutions. On the second day, 100,000 LTT cells were added, in 50 μl of medium per well, along with 50 μl of medium to the control wells and 50 μl of medium containing:
Group 1. solubleFas (sFas)(FasFc, mouse), with a final concentration of 1 μg/ml
Group 2. mFLINT (human), with a final concentration of 1 ug/ml
Group 3. anti-FasL (mouse), with a final concentration of 1 ug/ml.
These then were incubated overnight, at 37° C., in 5% CO2;
On the following day (Day 3), the cells were collected from each well, washed and labeled with Annexin V and PI, following Flow cytometry analysis.

[2] = system: LIGHT; assay: LIGHT cell surface binding assay by flow cytometry; details: LIGHT expressing cells preincubated with 10 fold excess of non tagged mFLINT
Experimental: To confirm the dot blot binding between LIGHT and mFLINT, 293 cells were transiently transfected with LIGHT expression construct overnight. On the next day, cells were detached and incubated with mFLINT-Flag on ice. […] As a control we used vector transfected cells. To make sure that the binding was specific, a competition assay with 10 fold access of untagged mFLINT was performed.
More particularly, 6 well dishes of cells were transfected as above. Both vector and m-LIGHT expressing cells were provided. Cells were detached from the plates by vigorous pipetting with a P100 Pipettor. Then, in PBS/BSA, 0.1%, cells were exposed to one of the following combinations, set forth in a-d.
a. GST/flag, mFLINT/flag, or HVEM at 20 nM;
b. FLINT/flag at 20 nM+GST/flag or mFLINT or HVEM at 200 nM;
c. FLINT/flag at 20 nM+HVEM+anti-human FAS ligand at 200 n-M;
d. anti-human FAS ligand-biotin at 1 μg/ml
Cells were incubated on ice for 30 minutes and washed with PBS/BSA, 0.1%. Cells then were exposed either to anti-human IgG-biotin, 1 μg/ml (for detection of HVEM), or to M2-biotin, 2 μg/ml (for detection of flag conjugates). Cells were incubated on ice for 30 minutes and washed with PBS/BSA, 0.1%. Thereafter, cells were exposed to streptavidin Alexa 488 (SIGMA) at a 1:1000 dilution. Again, cells were incubated on ice for 30 minutes and washed with PBS/BSA, 0.1 1%. Cells were analyzed using a FACSORT flow cytometer (Decton Dickinson) to determine binding.

[3] = system: B16 melanoma cells; assay: B16 melanoma subcutaneous tumor growth; type: in vivo; details: days 4-13
Experimental: Tumor response was monitored by tumor volume measurements as determined by caliper measurements of two dimensions of the tumors on days 4, 8, 11, 17, 21, 25, 30 and 34. Tumor volume was calculated as a hemi-ellipsoid. The animals were weighed on the same schedule described above.

[4] = system: osteoclasts; assay: Murine osteoclast differentiation assay (TRAP staining); type: cell-based, mouse; details: mean and standard error of 6 wells
Experimental: Male Balb/C mice (4-8 weeks old) were euthanized with CO2, the femurs removed, and the marrow flushed out of the femurs with growth medium. Bone marrow cells were pelleted by centrifugation at 500×g for 6 min. and resuspended in the growth medium (RPMI 1640 plus 5% heat inactivated fetal bovine-serum and 1% antibiotic-antimycotic solution). The marrow population (5×10^4 cells/cm^2) was seeded in tissue culture dishes in which BALC cells (a stable cell line derived from neonatal mouse calvariae, 1.5×10^4 cells/cm^2) had been plated 2 h prior to addition of bone marrow. The cells were cultured for 7 days in a humidified incubator at 37° C. with 5% CO2 with medium changes on days 3 and 5. Cultures were treated with or without 10^−8M 1,25-(OH)2D3 on days 0, 3, and 5. In addition, -the cells were treated with or without secreted mFLINT protein purified from the conditioned medium of cells transfected with mFLINT gene (FIG. 1). Following 7 days of culture, the cells in 24-well cluster dishes were fixed with formalin (3.7% for 10 min) and then stained for tartrate-resistant acid phosphatase (TRAP) using a modification of the method described by Graves, L and Jilka R L, J Cell Physiology 145:102 1990. The number of osteoclasts (TRAP-positive cells containing 3 or more nuclei) was quantitated.

[5] = system: bone marrow cells; assay: Viable cell count of bone marrow cells from 5-FU treated mice after cytokine expansion; type: cell-based, mouse; details: FIG. 10; 3 days with SCF and IL-6; mFLINT 1 ug/ml, anti-FasL 1 ug/ml, FasL 0.15 ug/ml; control 3,300
Excerpt: Following a 3 day in vitro expansion period with cytokines, viable cells are counted and used to set up a CFU assay. If mFLINT or anti-FasL antibody protects progenitor cells from apoptosis, one would expect a greater number of colonies in these groups for the CFU assay. […] The values were: control cells: 3,300; FasL-treated cells: 3,000; anti-FasL-treated cells: 4,200; mFLINT-treated cells: 4,900.

B1: mFLINT: mature FLINT without leader peptide (FIG. 3), soluble TNFR superfamily member, made according to Examples 8 and 9 (protein)
chain: VAETPTYPWRDAETGERLVCAQCPPGTFVQRPCRRDSPTTCGPCPPRHYTQFWNYLERCRYCNVLCGEREEEARACHATHNRACRCRTGFFAHAGFCLEHASCPPGAGVIAPGTPSQNTQCQPCPPGTFSASSSSSEQCQPHRNCTALGLALNVPGSSSHDTLCTSCTGFPLSTRVPGAEECERAVIDFVAFQDISIKRLQRLLQALEAPEGWGPTPRAGRAALQLKLRRRLTELLGAQDGALLVRLLQALRVARMPGLERSVRERFLPVH
modifications: glycosylated
- % Annexin V Positive ([1]; Anti CD3 0): 26.47%
- % Annexin V Positive ([1]; Anti CD3 0.11): 33.24%
- % Annexin V Positive ([1]; Anti CD3 0.33): 35.89%
- % Annexin V Positive ([1]; Anti CD3 1): 34.41%
- competition of mFLINT-Flag binding [2]: completely reversed to baseline peak
- day tumors reached a volume of 500 mm^3 ([3]; 50 μg/injection iv once daily): 19.3 ± 0.3 days
- day tumors reached a volume of 1000 mm^3 ([3]; 50 μg/injection iv once daily): 23.0 ± 0.4 days
- tumor growth delay ([3]; 50 μg/injection iv once daily): 1.8 days
- tumor volume after 20 days ([3]; FIG. 8, 50 μg/injection iv, control approximately 1000 mm^3): approximately 730 mm^3
- Osteoclasts/well ([4]; FLINT 0.01 ng/ml, control 145.50): 40.50 ± 2.39 Osteoclasts/well
- Osteoclasts/well ([4]; FLINT 0.10 ng/ml): 65.50 ± 3.33 Osteoclasts/well
- Osteoclasts/well ([4]; FLINT 1.00 ng/ml): 97.50 ± 3.10 Osteoclasts/well
- Osteoclasts/well ([4]; FLINT 10.00 ng/ml): 170.17 ± 8.26 Osteoclasts/well
- Osteoclasts/well ([4]; FLINT 100.00 ng/ml): 335.00 ± 8.90 Osteoclasts/well
- bone marrow cell count [5]: 4,900 ×1000
